In experiment [1] the target is T1, importin-7 (Homo sapiens, UniProt O95373).
T1 construct: endogenous in cells; host or cells: HeLa
Description: Coimmunoprecipitation with importin-7. The experiment is classed as binding. Conditions: HeLa cells, coimmunoprecipitation with anti GFP Ab, with or without stimulation. On the procedure: (§1) FIGS. 19A-19C are autoradiographs illustrating that phospho-SPS interacts with importin-7 and releases Nup153c binding without involvment of importin-β. […]. Interaction of ERK2 with Importin-7 is enhanced by EGF stimulation and EPE mutation. HeLa cells overexpressing WT-ERK (WT), ERK-APA (APA), ERK-EPE (EPE) or GFP were serum starved and treated with EGF (50 ng/ml, 10 min). The extracts of the treated cells were then subjected to coimmunoprecipitation using A/G beads pre-conjugated with anti GFP Ab and mild washes. The coimmunoprecipitated importin-7 (first panel) and importin-β (third panel), as well as their loading amounts (panels 2 and 4 respectively) were determined by WB using anti importin-7 (αImp7) and importin-β (αImpβ) Abs. The equal amount of immunoprecipitated ERKs was determined with anti GFP (αGFP; IP) Ab. FIG. 19B. Interaction of 2GFP-SPS and its mutants with importin-7. HeLa cells overexpressing 2GFP, 2GFP-SPS, 2GFP-APA and 2GFP-EPE constructs were subjected to coimmunoprecipitation as described in FIG. 19A (without EGF stimulation). FIG. 19C. Interaction of NUP153 with WTERK2 and its APA and EPE mutants. NUP153c is elevated in APA-ERK2, but reduced in EPE-ERK2. Immunoprecipitated and stringently washed WT-ERK2 (WT), APA-ERK2 (APA) or ERK2 from […] cells pre-treated with or without TPA (250 nM, 15 min) were incubated with 0.5 μg recombinant His-Nup153c. […]

Experiment [2] deals with COS7 cells. Nature of the experiment: Subcellular fractionation of GFP-ERK2 constructs. The note with it: 48 hr after transfection, serum-starved. It is filed as cell-based. On the procedure:
FIG. 6 is an autoradiograph illustrating the subcellular fractionation of WT-GFP-ERK2 (WT), APA-GFP-ERK2 (APA), or EPE-GFP-ERK2 (EPE). COS7 cells were grown in 10 cm plates and transfected with the above ERK2 constructs. Twenty-four hr after transfection the cells were serum-starved for 16 hr and subjected to cellular fractionation as described under materials and Methods. Western blot analysis of aliquots of the fractions were stained with anti GFP Ab to detect the ERK2 and its mutant, and with anti tubulin and anti c-Jun Abs as markers for the cytoplasmic and nuclear fractions respectively.
Cellular Fractionation: Transfected COS7 cells were starved (0.1% FBS) for 16 h, after which they were washed with ice-cold PBS, suspended in ice-cold buffer H, and centrifuged (12,000×g, 5 min). Then, the nuclear and cytosolic fractions were isolated as described [H. Rubinfeld, T. Hanoch, R. Seger, J. Biol. Chem. 274, 30349 (1999)]. Briefly, the pellets were suspended in 0.1% NP-40 followed by centrifugation (12,000×g, 5 min). The supernatant, containing the cytosolic fraction, was boiled in sample buffer. The pellet was suspended in extraction buffer (420 mM Nacl, 50 mM β-glycerophosphate, 0.5 mM Na3VO4, 1.5 mM MgCl2, 0.2 mM EDTA, 1 mM DTT, 25% glycerol), incubate on ice for 10 min, sonicated (50 W, 2×7 sec), and centrifuged (12,000×g, 5 min). […]

Experiment [3] deals with COS7 cells. Nature of the experiment: Proliferation assay of COS7 cells overexpressing ERK2 constructs. It is filed as cell-based. The note with it: 72 hours after transfection. On the procedure: FIG. 16 is a bar graph illustrating that the prevention of SPS phosphorylation inhibits proliferation. COS7 cells overexpressing WT-ERK2, 244-6A-ERK2, ▴244-6-ERK2, APA-ERK2 or EPE-ERK2 were subjected to proliferation assay 72 hours after transfection. The bar graph represent the mean+/−SD (n=3), Student t test was used for statistical analysis (*, p<0.01).

Experiment [4] deals with CHO cells. Nature of the experiment: Fluorescence microscopy of ERK2 constructs (subcellular localization). It is filed as cell-based. On the procedure:
FIGS. 1A-1R are photomicrographs illustrating the role of SPS in the non-regulated accumulation of ERK2 in the nucleus. CHO (FIGS. 1A-F and 1M-R) or COS7 cells (FIGS. 1G-L) were grown on cover slips and transfected with WT-ERK2, or the mutants 244-6A and Δ244-6. Twenty-four hr following transfection, the cells were serum-starved (16 hr), fixed, stained with DAPI and visualized using a fluorescent microscope.
FIGS. 2A-2X are photomicrographs illustrating the role of SPS in the stimulated nuclear translocation of ERK2. CHO cells were grown on cover slips and co-transfected with HA-MEK1 together with either WT-ERK2, 244-6A, or Δ244-6. Twenty-four hr after transfection, the cells were serum starved for 16 hours, treated with TPA (250 nM, 15 min), except in WT-10 where the cells were treated with 10 nM TPA for 15 min. After treatments the cells were fixed and stained with either anti-HA Ab or DAPI.
FIGS. 5A-5F are photomicrographs illustrating that mutating the Ser residues in the SPS to Glu induces the nuclear accumulation of ERK2. CHO cells were grown on cover slips and transfected with WT-GFP-ERK2 (WT), APA-GFP-ERK2 (APA), or EPE-GFP-ERK2 (EPE). Twenty-four hr after transfection, the cells were serum-starved, fixed, stained with DAPI and visualized by a fluorescent microscope.
FIGS. 7A-7H are photomicrographs illustrating that EPE-ERKs translocates to the nucleus faster than WT-ERK. CHO cells were transfected with WT-GFP-ERK2 (WT) and EPE-GFP-ERK2 (EPE). Eight (FIGS. 7A-D) or twelve (FIGS. 7E-H) hours after transfection the cells were fixed, stained with DAPI and visualized by a fluorescent microscope.
Immunofluorescence Microscopy. Cells were fixed (30 min in 3% paraformaldehyde in PBS or 10 min with ice-cold methanol), followed by 5-min permeabilization with 0.2% Triton X-100 in PBS (23° C.). The fixed cells were sequentially incubated with the appropriate Abs (45 min) followed by rhodamine-conjugated secondary Abs (45 min) and DAPI. Slides were visualized using a fluorescence microscope (Nikon, Japan) at 400× magnifications. […]

In experiment [5] the test system is Nup153c. Description: Interaction with recombinant His-Nup153c. The note with it: immunoprecipitated ERK2 incubated with 0.5 μg recombinant His-Nup153c. The experiment is classed as binding. On the procedure: as §1

T1 sequence (O95373 whole entry): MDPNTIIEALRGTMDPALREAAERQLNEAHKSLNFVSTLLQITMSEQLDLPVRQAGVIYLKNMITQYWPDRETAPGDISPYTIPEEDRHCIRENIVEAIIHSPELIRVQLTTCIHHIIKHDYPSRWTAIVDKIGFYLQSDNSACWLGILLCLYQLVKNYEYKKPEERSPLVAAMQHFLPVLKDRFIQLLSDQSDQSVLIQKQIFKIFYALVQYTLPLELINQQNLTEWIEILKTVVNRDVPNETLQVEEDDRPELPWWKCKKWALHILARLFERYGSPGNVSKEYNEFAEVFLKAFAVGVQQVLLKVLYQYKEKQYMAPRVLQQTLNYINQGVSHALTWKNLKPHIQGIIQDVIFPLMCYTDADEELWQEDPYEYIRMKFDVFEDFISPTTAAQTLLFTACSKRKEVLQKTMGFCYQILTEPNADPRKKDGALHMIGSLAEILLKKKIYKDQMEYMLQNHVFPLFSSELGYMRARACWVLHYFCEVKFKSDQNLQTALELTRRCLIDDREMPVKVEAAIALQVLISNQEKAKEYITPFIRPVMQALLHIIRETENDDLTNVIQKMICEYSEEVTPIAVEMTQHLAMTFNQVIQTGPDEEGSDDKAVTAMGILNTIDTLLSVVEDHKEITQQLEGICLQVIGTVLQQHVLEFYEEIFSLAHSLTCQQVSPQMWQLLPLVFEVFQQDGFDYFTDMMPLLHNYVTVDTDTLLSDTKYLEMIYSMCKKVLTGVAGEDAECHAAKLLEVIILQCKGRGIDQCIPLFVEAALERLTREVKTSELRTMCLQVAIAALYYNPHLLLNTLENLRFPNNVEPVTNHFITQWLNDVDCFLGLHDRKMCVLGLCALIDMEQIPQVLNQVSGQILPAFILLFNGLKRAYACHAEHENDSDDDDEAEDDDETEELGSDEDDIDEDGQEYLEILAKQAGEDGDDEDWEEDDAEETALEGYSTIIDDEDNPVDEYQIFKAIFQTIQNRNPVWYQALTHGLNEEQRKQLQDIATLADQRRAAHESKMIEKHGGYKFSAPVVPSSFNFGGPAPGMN

B1: EPE-ERK2: GFP-ERK2 with the two Ser residues of the SPS domain replaced with Glu (phosphomimetic) (protein)
chain: MAAAAAAGPEMVRGQVFDVGPRYTNLSYIGEGAYGMVCSAYDNLNKVRVAIKKISPFEHQTYCQRTLREIKILLRFRHENIIGINDIIRAPTIEQMKDVYIVQDLMETDLYKLLKTQHLSNDHICYFLYQILRGLKYIHSANVLHRDLKPSNLLLNTTCDLKICDFGLARVADPDHDHTGFLTEYVATRWYRAPEIMLNSKGYTKSIDIWSVGCILAEMLSNRPIFPGKHYLDQLNHILGILGEPEQEDLNCIINLKARNYLLSLPHKNKVPWNRLFPNADSKALDLLDKMLTFNPHKRIEVEQALAHPYLEQYYDPSDEPIAEAPFKFDMELDDLPKEKLKELIFEETARFQPGYRS
modifications: left off: large carriers
B1: the “interaction of ERK2 constructs with importin-7” value in experiment [1] is “dramatically increased the interaction”. In experiment [2], the “localized in the nucleus” value is recorded as around 95%. Besides, in experiment [3], the serum-induced cell proliferation result was “slightly enhanced”. Moreover, the “speed of translocation into the nucleus” value in experiment [4] (CHO cells, shortly (8 or 12 hours) after transfection) is on record as “faster than WT-ERK2”. In addition, the “subcellular localization in quiescent cells” value in experiment [4] (overexpressed in CHO (and COS7) cells, serum-starved, fluorescent microscope) was “pronounced nuclear localization”. Also, the “interaction with Nup153” value in experiment [5] is given as “reduced”.
